Assay results from the nanobody polyreactivity screen of Harvey et al. (2022).

Test: yeast display, Sf9 membrane polyspecificity reagent, FACS + sequencing; frameworks hold sequencing errors
In short: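 Galactose-induced (36–48 hours) yeast carrying a synthetic nanobody display library were exposed to 10% biotinylated, detergent-solubilized Sf9 membrane reagent at 4 °C for 1 hour. FACS followed streptavidin microbead enrichment, using low and high (top ~1%) gates for expression (anti-HA) and reagent binding (streptavidin). Colony PCR, MiSeq 2 × 250 sequencing and CDR-length filtering followed. Labels for polyreactivity reflect the gate of origin.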

Sequence | polyreactivity (PSR sort gate)
QVQLVESGGGLVQAGGSLRLSCAASGRIFYYYPMGWYRQAPGKERELVADITRGGGTYYADSVKGRFTISRDNAKNTVYLQMNSLKPEDTAVYYCAKGGPPESHHPYRYRFDYWGQGTQVTVSS | low polyreactivity
QVQLVESGGGLVQAGGSLRLSCAASGRIFYYYTMGWYRQAPGKERELVADISRGGSTYYADSVKGRFTISRDNAKNTVYLQMNSLKPEDTAVYYCNAVTRIQTSYPSNWGMMDYWGQGTQVTVSS | low polyreactivity
QVQLVESGGGLVQAGGSLRLSCAASGRIFYYYTMGWYRQAPGKERELVAGISRSGDRTYYADSVKGRFTISRDNGKNTVYLQMNSLKPEDTAVYYFAALYGYVHRKAFYYWGQGTQVTVSS | high polyreactivity
QVQLVESGGGLVQAGGSLRLSCAASGRIGKYAMGWYRQAPGKERELVATISSTGTTNYADSVKGRFTISRDNAKNTVYLKMNSLKPEDTAVYYCAARWEYVGYRRRYYRFDYWGQGTQVTVSS | high polyreactivity
QVQLVESGGGLVQAGGSLRLSCAASGRIICFYPMGWYRQAPGKEREFVAAIRWSGGTTYYADSVKGRFTISRDNAKNNVYLQMNSLKPEDTAVYYCAAGRAVGHSLYSRGYDYWGQGTQVTVSS | low polyreactivity
QVQLVESGGGLVQAGGSLRLSCAASGRIIDRNAMGWYRQAPGKERELVAAISSSGSTNYADSVKGRFTISRDNAKNTVYLQLNSLKPEDTAVYYCAARWRSVLASGTRPVSFDYWGQGTQVTVSS | low polyreactivity
QVQLVESGGGLVQAGGSLRLSCAASGRIIGFNAMGWYRQAPGKERELVASIRTTGGSTRYADSVKGRFTISRDNAKNTVYLQMNSLKPEDTAVYDCAARWGKTLWQYNYWGQGTQVTVSS | high polyreactivity
QVQLVESGGGLVQAGGSLRLSCAASGRIIGHNAMGWYRQAPGKERELVAAISSRGGSTFYADSVKGRFTISRDNAKNTVYLQKNSLKPEDTAVYYCNALGVGHSGFTKFSRYYYWGQGTQVTVSS | high polyreactivity
QVQLVESGGGLVQAGGSLRLSCAASGRIIGKNVMGWYRQAPGKERELVAAISKSGGSTYYADSVKGRFTISRDNAKNTVYLQMNSLKPEDTAVYYCAAKYYYHWHRQGYDYWGQGTQVTVSS | high polyreactivity
QVQLVESGGGLVQAGGSLRLSCAASGRIIGKYDMGWYRQAPGTERELVAAIRYNGGRTYYADSVKGRFTISRDNAKNTVYLQMNRLKPEDNAVYYCATRTYRVDPEFGYWGQGTEVTVSS | high polyreactivity
QVQLVESGGGLVQAGGSLRLSCAASGRIIGLYAMGWYRQAPGKEMELVAAISSAGSTYYADSVKGRFTISRDNAKNTVYLQMNSLKTEDTAVYYCDKSRYRGYDYWGQGTQVTVSS | low polyreactivity
QVQLVESGGGLVQAGGSLRLSCAASGRIIGNYAMGWYRQAPGKERELVAAISNGGSTNYADSVKGRFTISRDNAKNTVYLQMNSLKPEDTAVYYCNADQWAVIWGYMVLDFYYWGQGTQVTVSS | low polyreactivity
QVQLVESGGGLVQAGGSLRLSCAASGRIIGRYAMGWYRQAPGKEREFVAAISGSGGSTYYADSVKGRFTISRDNAKNTVYLQMNSLKPEDTAVYYCNALSVPDYDYWGQGTQVTVSS | high polyreactivity
QVQLVESGGGLVQAGGSLRLSCAASGRIIGYYAMGWYRQAPGKERELVAGIDWSGGNTYYADSVKGRFTISRDNAKNTVYLQMNSLKPEDTAVYYCNTEGGRDTAWYDYWGQGTQVTVSS | low polyreactivity
QVQLVESGGGLVQAGGSLRLSCAASGRIIIYKAMGWYRQAPGKERQLVAAINRSGVSTHYADSVKGRFTISRDNAKNTVYLQMNSLKPEDTAVYYCARTVYGARSYDYWGQGTQVTVSS | low polyreactivity
QVQLVESGGGLVQAGGSLRLSCAASGRIIKFYAMGWYRQAPGKERELVARISRSGGRTYYADSVKGRFTISRDNAKNTVYLQMNSLKPEDTAVYYCAADTQSVATYDYWGQGTQVTVSS | low polyreactivity
QVQLVESGGGLVQAGGSLRLSCAASGRIINSNAMGWYRQAPGKERELVAAISTTGGRTYYADSVKGRFTISRDNAKNTVYLQMNSLKPEDTAVYYCNRLYRYLVWPAGEYDYWGQGTQVTVSS | high polyreactivity
QVQLVESGGGLVQAGGSLRLSCAASGRIIPYYAMGWYRQAPGKERELVASTNYADSVKGRFTISRDNAKNTVYLQMNSLKPEDTAVYYCAADGYRYSVYLIRNPMDYWGQGTQVTVSS | low polyreactivity
QVQLVESGGGLVQAGGSLRLSCAASGRIIRAYDMGWYRQAPGKERELVAVIRYRGGTTYYADSVKGRFTISRDNAMNTVYLQMYSLKPEDTAVYYCATEDNYHWWYTGVSYGEHDYLGQGTQVTVSS | low polyreactivity
QVQLVESGGGLVQAGGSLRLSCAASGRIIRSNVMGWYRQAPGKERDLVAGISRSGGSTYYADSVKGRFTISRDNAKNTVYLKMNSLKPEDTAVYYCNAGWWYLGSPFDRDYWGQGTQVTVSS | high polyreactivity
QVQLVESGGGLVQAGGSLRLSCAASGRIISHYAMGWYRQAPGKDRELVAAISRSGVSTYYADSVKGRFTISRDNAKNTVYLQMNSLKPEDTAVYYCNRRYDRGPYDYWGQGTQVTVSS | low polyreactivity
QVQLVESGGGLVQAGGSLRLSCAASGRIITGYAMGWYRQAPGKERELVAAISRGGSTNYADSVKGRFTISRDNAKNTVYLQMNSLKPEDTAVYYCAAGVHWDRGDYWGQGTQVTVSS | low polyreactivity

Sequence | polyreactivity (PSR sort gate)
QVQLVESGGGLVQAGGSLRLSCAASGRIITYNAMGWYRQAPGKERELVAAISTTGGRTYYADSVKGRFTISRDNAKNTVYLQMNSLKPEDTAVYYCNAVLKRPLAYHVTYDYWGQGTQVTVSS | high polyreactivity
QVQLVESGGGLVQAGGSLRLSCAASGRIIYGYAMGWYRQAHGKERELVASITATYYADSVKGRFTISLDNSKNTVYLQMNSLIPEDTAVYYCNAYLSPKHPLSRPDPTFEGGYRGQGTQVTVSS | low polyreactivity
QVQLVESGGGLVQAGGSLRLSCAASGRIIYGYAMGWYRQAPGKERELVAAISASGGRTYYADSVKGRFTISRDHAKNTVYLQMNSLKPEDTAVYYCAADDVGPPDFYYWGQGTQVTVSS | high polyreactivity
QVQLVESGGGLVQAGGSLRLSCAASGRIIYGYARGWYRQAPGKERELVAAISASGGRTYYADSVKGRFTISRDNAKNTVYLQMNSLKPEDTAVYYCARARFYWLTQWSYDYWGQGTQVTVSS | high polyreactivity
QVQLVESGGGLVQAGGSLRLSCAASGRILAPYVMGWYRQAPGKERELVAAISRSTGRTYYADSVKGRFTISRDNAKNTVYLQMNSLKPEDTAVYYCNRDVRVSLMGYWGQGTQVTVSS | high polyreactivity
QVQLVESGGGLVQAGGSLRLSCAASGRILASYAMGWYRQAPGKERELVAAISRSGGSTYYADSVKGRFTISRDNAKNTVYLQMNSLKPEDTAVYYCAAKYPQKTPVNSYGNSFYYWGQGTQVTVSS | high polyreactivity
QVQLVESGGGLVQAGGSLRLSCAASGRILAYNVMGWYRQAPGKEREFVASIRRTGVRTYYADSVKGRFTISRDNAKNTVYLQMNSLKPEDTAVYYCNAANFNFWDYYYWGQGTQVTVSS | low polyreactivity
QVQLVESGGGLVQAGGSLRLSCAASGRILAYYAMGWYRQAPGKERELVAAITSGGRTYYADSVKGRFTISRDNAKNTVYLQMNSLKPEDTAVYYCNAVYGYWYGSWGQGTQVTVSS | high polyreactivity
QVQLVESGGGLVQAGGSLRLSCAASGRILAYYAMGWYRQAPGKERELVAAITSGGRTYYADSVKGRFTISRDNAKNTVYLQMNSLKPEDTPVYYCNAVYGYWYGSWGQGTQVTVSS | high polyreactivity
QVQLVESGGGLVQAGGSLRLSCAASGRILDYNAMGWYRQAPGKERELVADISGSGDSTYYADSVKGRFTISRDNAKNTVYLQMNSLKPEDTAVYYCAASGAWDWWLGPYDDYYWGQGTQVTVSS | low polyreactivity
QVQLVESGGGLVQAGGSLRLSCAASGRILDYYAMGWYRQAPGKERELVAAISRSGSDTYYADSVKGRFTISRDNAKNTVYLQMNSLKPEDTAVYYCAARWSYRSLARYNYWGQGTQVTVSS | low polyreactivity
QVQLVESGGGLVQAGGSLRLSCAASGRILEGYSMGWYRQAPGKERELVAAISFSTTTTYYADSVKGRFTISRDNAKNTVYVQMNILKPEDTAVYYCAADSQQSDYDYWGQGTQVTVSS | high polyreactivity
QVQLVESGGGLVQAGGSLRLSCAASGRILEVYAMGWYRQAPGKERELVAAIRWSDGNTYYADSVKGRFTISRDNAKNTVYLQMNSLKPEDTAVYYCAARTPGGYDWGQGTQVTVSS | high polyreactivity
QVQLVESGGGLVQAGGSLRLSCAASGRILGAYAMGWYRQAPGKERELVASISSGGRTYYADSVKGRFTISRDNAKNTVYLQMNSLKPEDTAVYYCNAKVRRRKYDYWGQGTQVTVSS | high polyreactivity
QVQLVESGGGLVQAGGSLRLSCAASGRILGFYAMGWDRQAPGKERELVARINWSGTRTYYADSVKGRFTISRDNAKNTVYLQMNSLKPEDTAVYYCAAERYPYVVTYSKLDYWGQGTQVTVSS | high polyreactivity
QVQLVESGGGLVQAGGSLRLSCAASGRILGKNTMGWYRQAPGKEREFVAAISASGGRTYYADSVKGRFTISRDNAKYTVYLQMNSLKPEDTAVYYCAAARSRYSYATGFDYWGQGTQVTVSS | high polyreactivity
QVQLVESGGGLVQAGGSLRLSCAASGRILGRKAMGWYRHAPGKEREYVAAISSGGNTYYADSVKGRFTISRDNAKNTVYLQMKSLKPEDTAVYYCNADPDTYVSTITHDSWGQGTQVTVSS | low polyreactivity
QVQLVESGGGLVQAGGSLRLSCAASGRILGRYAMGWYRQAPGKERELVAAITSGGNTTYADSVKGRFTISRDNAKNTVYLQMNSLKPEDTAVYYCAAYSYTQLNLMDYWGQGSQVTVSS | low polyreactivity
QVQLVESGGGLVQAGGSLRLSCAASGRILHEYAMGWYRQAPGKERELVAAITFSGTSTYYADSVKGRFTISRDNAKNTVYLQMNSLKPEDTAVYYCAADTYGGSRDYWGQGTQVTVSS | low polyreactivity
QVQLVESGGGLVQAGGSLRLSCAASGRILHGYTMGWYRQAPGKERELVAAITSGGSTYYADSVKGRFTISRDNAKNTVYLQMNSLKPEDTAVYYCAAASYRHEEYYWGQGTQVTVSS | high polyreactivity
QVQLVESGGGLVQAGGSLRLSCAASGRILIVNTMGWYRQAPGKERELVAAISSGGTTYYADSVKGRFTISRDNAKNTVYLQMNSLKPEDTAVYYCAAKRAGAEYDYWGQGTQVTVSS | high polyreactivity
